Test results as given in patent US20180092966A1 (CSL, published 2018).
Changes are numbered by the printed parent chain. Names may count otherwise.

B1: Factor VIII SingleChain T1654C mutant (other)
chain: ATRRYYLGAVELSWDYMQSDLGELPVDARFPPRVPKSFPFNTSVVYKKTLFVEFTDHLFNIAKPRPPWMGLLGPTIQAEVYDTVVITLKNMASHPVSLHAVGVSYWKASEGAEYDDQTSQREKEDDKVFPGGSHTYVWQVLKENGPMASDPLCLTYSYLSHVDLVKDLNSGLIGALLVCREGSLAKEKTQTLHKFILLFAVFDEGKSWHSETKNSLMQDRDAASARAWPKMHTVNGYVNRSLPGLIGCHRKSVYWHVIGMGTTPEVHSIFLEGHTFLVRNHRQASLEISPITFLTAQTLLMDLGQFLLFCHISSHQHDGMEAYVKVDSCPEEPQLRMKNNEEAEDYDDDLTDSEMDVVRFDDDNSPSFIQIRSVAKKHPKTWVHYIAAEEEDWDYAPLVLAPDDRSYKSQYLNNGPQRIGRKYKKVRFMAYTDETFKTREAIQHESGILGPLLYGEVGDTLLIIFKNQASRPYNIYPHGITDVRPLYSRRLPKGVKHLKDFPILPGEIFKYKWTVTVEDGPTKSDPRCLTRYYSSFVNMERDLASGLIGPLLICYKESVDQRGNQIMSDKRNVILFSVFDENRSWYLTENIQRFLPNPAGVQLEDPEFQASNIMHSINGYVFDSLQLSVCLHEVAYWYILSIGAQTDFLSVFFSGYTFKHKMVYEDTLTLFPFSGETVFMSMENPGLWILGCHNSDFRNRGMTALLKVSSCDKNTGDYYEDSYEDISAYLLSKNNAIEPRSFSQNSRHRSTRQKQFNATTIPENTCLQSDQEEIDYDDTISVEMKKEDFDIYDEDENQSPRSFQKKTRHYFIAAVERLWDYGMSSSPHVLRNRAQSGSVPQFKKVVFQEFTDGSFTQPLYRGELNEHLGLLGPYIRAEVEDNIMVTFRNQASRPYSFYSSLISYEEDQRQGAEPRKNFVKPNETKTYFWKVQHHMAPTKDEFDCKAWAYFSDVDLEKDVHSGLIGPLLVCHTNTLNPAHGRQVTVQEFALFFTIFDETKSWYFTENMERNCRAPCNIQMEDPTFKENYRFHAINGYIMDTLPGLVMAQDQRIRWYLLSMGSNENIHSIHFSGHVFTVRKKEEYKMALYNLYPGVFETVEMLPSKAGIWRVECLIGEHLHAGMSTLFLVYSNKCQTPLGMASGHIRDFQITASGQYGQWAPKLARLHYSGSINAWSTKEPFSWIKVDLLAPMIIHGIKTQGARQKFSSLYISQFIIMYSLDGKKWQTYRGNSTGTLMVFFGNVDSSGIKHNIFNPPIIARYIRLHPTHYSIRSTLRMELMGCDLNSCSMPLGMESKAISDAQITASSYFTNMFATWSPSKARLHLQGRSNAWRPQVNNPKEWLQVDFQKTMKVTGVTTQGVKSLLTSMYVKEFLISSSQDGHQWTLFFQNGKVKVFQGNQDSFTPVVNSLDPPLLTRYLRIHPQSWVHQIALRMEVLGCEAQDLY
notes: Single-chain FVIII with partial B-domain deletion (per WO 2004/067566); also called FVIII-SC T1654C; Cys residue at FVIII aa position 1654
B2: Factor VIII SingleChain E1684C mutant (other)
chain: B1 chain with C766T, E796C
notes: Single-chain FVIII with partial B-domain deletion; also called FVIII-SC E1684C; Cys residue at FVIII aa position 1684
B3: Factor VIII SingleChain I1679C mutant (other)
chain: B1 chain with C766T, I791C
notes: Single-chain FVIII with partial B-domain deletion; also called FVIII-SC I1679C mutant; Cys residue at FVIII aa position 1679
B4: Factor VIII SingleChain Q1656C mutant (other)
chain: B1 chain with C766T, Q768C
notes: Single-chain FVIII with partial B-domain deletion; also called FVIII-SC Q1656C; Cys residue at FVIII aa position 1656
B5: Factor VIII SingleChain F1677C mutant (other)
chain: B1 chain with C766T, F789C
notes: Single-chain FVIII with partial B-domain deletion; also called FVIII-SC F1677C; Cys residue at FVIII aa position 1677
B6: Factor VIII SingleChain D1681C mutant (other)
chain: B1 chain with C766T, D793C
notes: Single-chain FVIII with partial B-domain deletion; also called FVIII-SC D1681C; Cys residue at FVIII aa position 1681
B7: Factor VIII SingleChain D1683C mutant (other)
chain: B1 chain with C766T, D795C
notes: Single-chain FVIII with partial B-domain deletion; also called FVIII-SC D1683C; Cys residue at FVIII aa position 1683
B8: Factor VIII SingleChain E1682C mutant (other)
chain: B1 chain with C766T, E794C
notes: Single-chain FVIII with partial B-domain deletion; also called FVIII-SC E1682C; Cys residue at FVIII aa position 1682
B9: Factor VIII SingleChain S1687C mutant (other)
chain: B1 chain with C766T, S799C
notes: Single-chain FVIII with partial B-domain deletion; also called FVIII-SC S1687C; Cys residue at FVIII aa position 1687
B10: Factor VIII SingleChain Q1686C mutant (other)
chain: B1 chain with C766T, Q798C
notes: Single-chain FVIII with partial B-domain deletion; also called FVIII-SC Q1686C; Cys residue at FVIII aa position 1686

Columns and labels:
[1] = molecular target: T1, VWF-FP P1079C mutant (albumin-fused von Willebrand Factor) (human); assay: covalent-FVIII ELISA over FVIII antigen ELISA
T1 construct: also called VWF-FP mutant P1079C; Cys residue at VWF aa position 1079; not shown: linker between VWF and albumin, made in analogy to WO 2009/156137
T1 sequence (chain, as listed by the source P1079C P1079C): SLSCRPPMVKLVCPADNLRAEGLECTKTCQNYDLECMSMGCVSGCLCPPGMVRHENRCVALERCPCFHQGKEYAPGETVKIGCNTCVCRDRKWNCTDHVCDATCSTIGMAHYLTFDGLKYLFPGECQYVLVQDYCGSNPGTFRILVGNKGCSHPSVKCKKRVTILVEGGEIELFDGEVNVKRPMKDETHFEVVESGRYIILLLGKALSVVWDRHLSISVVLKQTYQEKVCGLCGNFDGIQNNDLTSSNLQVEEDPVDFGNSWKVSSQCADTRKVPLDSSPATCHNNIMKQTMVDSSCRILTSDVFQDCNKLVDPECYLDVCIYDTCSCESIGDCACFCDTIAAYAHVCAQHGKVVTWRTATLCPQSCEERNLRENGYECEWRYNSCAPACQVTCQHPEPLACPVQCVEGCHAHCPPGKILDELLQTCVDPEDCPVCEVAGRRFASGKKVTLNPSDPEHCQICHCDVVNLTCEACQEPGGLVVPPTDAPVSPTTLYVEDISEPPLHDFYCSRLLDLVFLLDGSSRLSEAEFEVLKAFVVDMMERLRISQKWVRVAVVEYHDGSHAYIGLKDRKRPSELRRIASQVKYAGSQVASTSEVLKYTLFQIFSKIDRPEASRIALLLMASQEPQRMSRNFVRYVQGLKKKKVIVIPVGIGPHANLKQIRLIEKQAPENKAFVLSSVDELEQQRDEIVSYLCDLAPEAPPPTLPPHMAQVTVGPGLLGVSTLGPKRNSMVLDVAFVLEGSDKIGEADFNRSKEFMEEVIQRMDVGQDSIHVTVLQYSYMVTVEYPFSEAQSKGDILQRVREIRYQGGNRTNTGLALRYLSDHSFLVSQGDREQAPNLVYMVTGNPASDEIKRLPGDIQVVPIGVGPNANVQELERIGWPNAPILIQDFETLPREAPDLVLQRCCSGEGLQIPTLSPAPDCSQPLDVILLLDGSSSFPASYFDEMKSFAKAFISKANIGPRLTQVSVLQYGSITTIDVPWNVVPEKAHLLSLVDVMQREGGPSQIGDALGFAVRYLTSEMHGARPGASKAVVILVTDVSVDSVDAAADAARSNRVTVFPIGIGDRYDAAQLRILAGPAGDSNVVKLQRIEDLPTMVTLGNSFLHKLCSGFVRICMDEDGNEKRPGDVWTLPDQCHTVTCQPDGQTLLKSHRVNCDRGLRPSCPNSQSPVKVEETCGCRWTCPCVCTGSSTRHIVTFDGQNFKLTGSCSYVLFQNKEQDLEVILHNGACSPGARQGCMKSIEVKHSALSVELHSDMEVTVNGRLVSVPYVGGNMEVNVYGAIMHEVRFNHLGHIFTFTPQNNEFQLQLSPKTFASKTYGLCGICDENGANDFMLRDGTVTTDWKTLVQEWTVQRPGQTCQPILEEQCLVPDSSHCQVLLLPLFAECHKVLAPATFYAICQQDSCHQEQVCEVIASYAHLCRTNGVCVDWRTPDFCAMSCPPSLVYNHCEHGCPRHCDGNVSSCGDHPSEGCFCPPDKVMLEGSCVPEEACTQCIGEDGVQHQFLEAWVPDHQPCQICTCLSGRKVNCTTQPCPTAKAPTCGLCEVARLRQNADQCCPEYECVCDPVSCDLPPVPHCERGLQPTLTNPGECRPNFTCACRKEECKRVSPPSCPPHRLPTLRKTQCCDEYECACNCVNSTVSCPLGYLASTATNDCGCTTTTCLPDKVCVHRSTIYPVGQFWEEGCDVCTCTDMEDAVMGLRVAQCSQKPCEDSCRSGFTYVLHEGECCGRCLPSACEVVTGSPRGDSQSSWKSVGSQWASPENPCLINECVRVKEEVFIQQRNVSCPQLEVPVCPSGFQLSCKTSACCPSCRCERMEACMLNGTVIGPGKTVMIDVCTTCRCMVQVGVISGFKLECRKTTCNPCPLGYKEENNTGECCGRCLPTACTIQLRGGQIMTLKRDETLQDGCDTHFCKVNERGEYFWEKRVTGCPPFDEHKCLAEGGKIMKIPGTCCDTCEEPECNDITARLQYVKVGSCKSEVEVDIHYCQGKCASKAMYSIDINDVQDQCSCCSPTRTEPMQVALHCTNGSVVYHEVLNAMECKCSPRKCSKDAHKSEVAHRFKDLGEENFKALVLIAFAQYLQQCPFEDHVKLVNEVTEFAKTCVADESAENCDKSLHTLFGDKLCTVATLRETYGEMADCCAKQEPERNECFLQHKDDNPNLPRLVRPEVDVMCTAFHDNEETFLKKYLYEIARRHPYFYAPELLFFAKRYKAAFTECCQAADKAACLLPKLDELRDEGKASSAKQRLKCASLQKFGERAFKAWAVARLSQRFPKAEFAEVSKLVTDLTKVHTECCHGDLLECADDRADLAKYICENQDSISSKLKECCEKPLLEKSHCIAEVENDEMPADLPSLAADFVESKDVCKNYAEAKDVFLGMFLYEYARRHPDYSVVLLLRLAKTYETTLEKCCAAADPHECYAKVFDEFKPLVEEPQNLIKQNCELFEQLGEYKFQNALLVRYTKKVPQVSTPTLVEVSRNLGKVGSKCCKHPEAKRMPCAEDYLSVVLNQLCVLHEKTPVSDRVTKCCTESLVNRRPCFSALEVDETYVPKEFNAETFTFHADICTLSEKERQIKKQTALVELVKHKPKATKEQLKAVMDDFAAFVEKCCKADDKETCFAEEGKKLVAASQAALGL

[2] = molecular target: T2, VWF-FP N1134C mutant (albumin-fused von Willebrand Factor) (human); assay: covalent-FVIII ELISA over FVIII antigen ELISA
T2 construct: Stably expressed in CHO cells with furin co-transfected; also called VWF-FP mutant N1134C; Cys residue at VWF aa position 1134; not shown: linker between VWF and albumin, made in analogy to WO 2009/156137
T2 sequence (chain, as listed by the source N1134C N1134C): as the sequence (chain, as listed by the source P1079C P1079C) above, with C316P, N371C counted along it

[3] = molecular target: T1, VWF-FP P1079C mutant (albumin-fused von …); assay: covalent-FVIII ELISA over FVIII activity assay
[4] = molecular target: T2, VWF-FP N1134C mutant (albumin-fused von …); assay: covalent-FVIII ELISA over FVIII activity assay
[5] = molecular target: T1, VWF-FP P1079C mutant (albumin-fused von …); assay: ELISA of co-expression supernatant: anti-VWF capture, 350 mM CaCl2 wash, anti-FVIII detection
Method: (§1) Cell culture supernatant samples (10 ml) from transient transfections were concentrated with Amicon Ultracell-30K (Millipore UFC903024; 3000 g centrifugation). FVIII covalently attached to VWF-FP in culture supernatant (concentrates) was determined by a standard ELISA. Briefly, microplates were incubated with 100 μL per well of the capture antibody (rabbit anti human VWF-IgG, Dako A0082 [Dako, Hamburg, Germany], diluted 1:2000 in buffer A [Sigma C3041, Sigma-Aldrich, Munich, Germany]) overnight at ambient temperature. After washing plates three times with buffer B (Sigma T9039), each well was incubated with 200 μL buffer C (Sigma T6789) for 1.5 hours at ambient temperature (blocking). After another three wash steps with buffer B, serial dilutions of the test sample in buffer B as well as serial dilutions of a control preparation of covalently linked FVIII-VWF-FP, (2.0-0.03 arbitrary U/ml in buffer B (we call these “arbitrary units” as they may not correspond to the standard FVIII units as determined using Standard Human Plasma); volumes per well: 100 μL) were incubated for 1.5 hours at ambient temperature. After three wash steps with buffer B, 200 μL of 350 mM CaCl₂ were added to each well and incubated for 1 hour at ambient temperature. CaCl₂ was removed (without washing) and additional 200 μl were added to each well and incubated further for 1 hour. After three wash steps with buffer B 100 μL of a 1:2 dilution in buffer B of the detection antibody (Detecting Antibody for FVIII:C, peroxidase labelled, Cedarlane CL20035K-D) were added to each well and incubated for 1 hour at ambient temperature. After three wash steps with buffer B, 100 μL of substrate solution (OUVF, Siemens Healthcare Diagnostics) were added per well and incubated for 15 minutes at ambient temperature in the dark. Addition of 100 μL undiluted stop dilution (OSFA, Siemens Healthcare Diagnostics) prepared the samples for reading in a suitable microplate reader at 450 nm wavelength. Concentrations of the test samples were then calculated using the standard curve with the control preparation.

[6] = molecular target: T2, VWF-FP N1134C mutant (albumin-fused von …); assay: as above
Method: as §1

[7] = molecular target: T3, VWF-FP K1116C mutant (albumin-fused von Willebrand Factor) (human); assay: covalent-FVIII ELISA over FVIII antigen ELISA
T3 construct: Stably expressed in CHO cells with furin co-transfected; also called VWF-FP mutant K1116C; Cys residue at VWF aa position 1116; not shown: linker between VWF and albumin, made in analogy to WO 2009/156137
T3 sequence (chain, as listed by the source K1116C K1116C): as the sequence (chain, as listed by the source P1079C P1079C) above, with C316P, K353C counted along it

[8] = molecular target: T4, VWF-FP R768C mutant (albumin-fused von Willebrand Factor) (human); assay: covalent-FVIII ELISA over FVIII antigen ELISA
T4 construct: Stably expressed in CHO cells with furin co-transfected; also called VWF-FP mutant R768C; Cys residue at VWF aa position 768; not shown: linker between VWF and albumin, made in analogy to WO 2009/156137
T4 sequence (chain, as listed by the source R768C R768C): as the sequence (chain, as listed by the source P1079C P1079C) above, with R5C, C316P counted along it

[9] = molecular target: T3, VWF-FP K1116C mutant (albumin-fused von …); assay: covalent-FVIII ELISA over FVIII activity assay
[10] = molecular target: T4, VWF-FP R768C mutant (albumin-fused von …); assay: covalent-FVIII ELISA over FVIII activity assay
[11] = molecular target: T3, VWF-FP K1116C mutant (albumin-fused von …); assay: ELISA of co-expression supernatant: anti-VWF capture, 350 mM CaCl2 wash, anti-FVIII detection
Method: as §1

[12] = molecular target: T4, VWF-FP R768C mutant (albumin-fused von …); assay: as above
Method: as §1

[13] = molecular target: T5, VWF-FP E1015C mutant (albumin-fused von Willebrand Factor) (human); assay: covalent-FVIII ELISA over FVIII antigen ELISA
T5 construct: Stably expressed in CHO cells with furin co-transfected; also called VWF-FP mutant E1015C; Cys residue at VWF aa position 1015; not shown: linker between VWF and albumin, made in analogy to WO 2009/156137
T5 sequence (chain, as listed by the source E1015C E1015C): as the sequence (chain, as listed by the source P1079C P1079C) above, with E252C, C316P counted along it

[14] = molecular target: T5, VWF-FP E1015C mutant (albumin-fused von …); assay: covalent-FVIII ELISA over FVIII activity assay
[15] = molecular target: T5, VWF-FP E1015C mutant (albumin-fused von …); assay: ELISA of co-expression supernatant: anti-VWF capture, 350 mM CaCl2 wash, anti-FVIII detection
Method: as §1

Binder	ratio covalent FVIII/Total FVIII antigen [1]	ratio covalent FVIII/Total FVIII antigen [2]	ratio covalent FVIII/Total FVIII activity [3]	ratio covalent FVIII/Total FVIII activity [4]	covalent FVIII [5]	covalent FVIII [6]	ratio covalent FVIII/Total FVIII antigen [7]	ratio covalent FVIII/Total FVIII antigen [8]	ratio covalent FVIII/Total FVIII activity [9]	ratio covalent FVIII/Total FVIII activity [10]	covalent FVIII [11]	covalent FVIII [12]	ratio covalent FVIII/Total FVIII antigen [13]	ratio covalent FVIII/Total FVIII activity [14]	covalent FVIII [15]
B1	0.97	0.85	1.59	1.14	409 amU/ml	424 amU/ml									
B2		3.15		0.88		741 amU/ml	1.53	0.69	0.38	1.05	1150 amU/ml	491 amU/ml			
B3	1.14		1.26		398 amU/ml		0.85		1.12		992 amU/ml				
B4		1		0.44		435 amU/ml									
B5							0.79		1.66		1080 amU/ml				
B6							2.23	1.55	0.6	1.5	1440 amU/ml	87 amU/ml			
B7							1.76	3.07	0.42	4.07	1350 amU/ml	2210 amU/ml			
B8							1.23	2.23	0.34	2.11	488 amU/ml	328 amU/ml			
B9		2.05		1.05		843 amU/ml		0.49		1.44		390 amU/ml			
B10		5.43		0.76		693 amU/ml	5.24	0.51	0.86	1.03	2740 amU/ml	506 amU/ml	0.64	1.21	1640 amU/ml
